# Assay results taken from article PMC7244511, “Phosphoproteomics identifies dual-site phosphorylation in an extended basophilic motif regulating FILIP1-mediated degradation of filamin-C” (Communications Biology, 2020).
# B1: Myc-hFLNc d18–21 wild type (expressed in HEK293 cells) [human] / FILIP1 CT-GFP (expressed in HEK293 cells) [not stated] (parent)
# chain 1: LELSKRYSRALRPSVNGRRMVDVPVTSTGVQTDAVSGEAAEEETPAVFIRKSFQEENHIMSNLRQVGLKKPVERSSVLDRYPPAANELTMRKSWIPWMRKRENGPSITQEKGPRTNSSPGHPGEVVLSPKQGQPLHIRVTPDHENSTATLEITSPTSEEFFSSTTVIPTLGNQKPRITIIPSPNVMPQKQKSGDTTLGPERAMSPVTITTFSREKTPESGRGAFADRPTSPIQIMTVSTSAAPAEIAVSPESQEMPMGRTILKVTPEKQTVPTPVRKYNSNANIITTEDNKIHIHLGSQFKRSPGTSGEGVSPVITVRPVNVTAEKEVSTGTVLRSPRNHLSSRPGASKVTSTITITPVTTSSARGTQSVSGQDGSSQRPTPTRIPMSKESIIIHQLRMNSR
# chain 2: TGDDSMRTSQLNVGTSTDVSLKITESDLSQLTASIRAPSGNEEPCLLKRLPNRHIGISFTPKEVGEHVVSVRKSGKHVTNSPFKILVGPSEIGDASKVRVWGKGLSEGHTFQVAEFIVDTRNAGYGGLGLSIEGPSKVDINCEDMEDGTCKVTYCPTEPGTYIINIKFADKHVPGSPFTVKVTGEGRMKESITRRRQAPSIATIGSTCDLNLKIPGNWFQMVSAQERLTRTFTRSSHTYTRTERTEISKTRGGETKREVRVEESTQVGGDPFPAVFGDFLGRERLGSFGSITRQQEGEASSQDMTAQVTSPSGKVEAAEIVEGEDSAYSVRFVPQEMGPHTVAVKYRGQHVPGSPFQFTVGPLGEGGAHKVRAGGTGLERGVAGVPAEFSIWTREAGAGGLSIAVEGPSKAEIAFEDRKDGSCGVSYVVQEPGDYEVSIKFNDEHIPDSPFVVPVASLSDDARR
# B2: Myc-tagged FLNc d18–21 WT (expressed in C2 cells) [human] / FILIP1 CT-GFP (expressed in C2 cells) [not stated] (parent)
# chain 1: MRSRNQGGESASDGHISCPKPSIIGNAGEKSLSEDAKKKKKSNRKEDDVMASGTVKRHLKTSGECERKTKKSLELSKEDLIQLLSIMEGELQAREDVIHMLKTEKTKPEVLEAHYGSAEPEKVLRVLHRDAILAQEKSIGEDVYEKPISELDRLEEKQKETYRRMLEQLLLAEKCHRRTVYELENEKHKHTDYMNKSDDFTNLLEQERERLKKLLEQEKAYQARKEKENAKRLNKLRDELVKLKSFALMLVDERQMHIEQLGLQSQKVQDLTQKLREEEEKLKAITSKSKEDRQKLLKLEVDFEHKASRFSQEHEEMNAKLANQESHNRQLRLKLVGLTQRIEELEETNKNLQKAEEELQELRDKIAKGECGNSSLMAEVENLRKRVLEMEGKDEEITKTESQCRELRKKLQEEEHHSKELRLEVEKLQKRMSELEKLEEAFSKSKSECTQLHLNLEKEKNLTKDLLNELEVVKSRVKELECSESRLEKAELSLKDDLTKLKSFTVMLVDERKNMMEKIKQEERKVDGLNKNFKVEQGKVMDVTEKLIEESKKLLKLKSEMEEKVYNLTRERDELIGKLKSEEEKSSELSCSVDLLKKRLDGIEEVEREITRGRSRKGSELTCPEDNKIKELTLEIERLKKRLQQLEVVEGDLMKTEDEYDQLEQKFRTEQDKANFLSQQLEEIKHQIAKNKAIEKGEVVSQEAELRHRFRLEEAKSRDLKAEVQALKEKIHELMNKEDQLSQLQVDYSVLQQRFMEEENKNKNMGQEVLNLTKELELSKRYSRALRPSVNGRRMVDVPVTSTGVQTDAVSGEAAEEETPAVFIRKSFQEENHIMSNLRQVGLKKPVERSSVLDRYPPAANELTMRKSWIPWMRKRENGPSITQEKGPRTNSSPGHPGEVVLSPKQGQPLHIRVTPDHENSTATLEITSPTSEEFFSSTTVIPTLGNQKPRITIIPSPNVMPQKQKSGDTTLGPERAMSPVTITTFSREKTPESGRGAFADRPTSPIQIMTVSTSAAPAEIAVSPESQEMPMGRTILKVTPEKQTVPTPVRKYNSNANIITTEDNKIHIHLGSQFKRSPGTSGEGVSPVITVRPVNVTAEKEVSTGTVLRSPRNHLSSRPGASKVTSTITITPVTTSSARGTQSVSGQDGSSQRPTPTRIPMSKGMKAGKPVVAAPGAGNLTKFEPRAETQSMKIELKKSAASSTTSLGGGKG
# chain 2: B1 chain 2
# Variants of: B1
# Assay: co-immunoprecipitation (anti-Myc) with quantitative immunoblot
# Details: HEK293 cells transiently expressing FILIP1 CT-GFP and Myc-hFLNc d18–21, n = 3–6, read off a plot
row,Variant,ratio to parent
1,chain 2 S287A S290A,2.1
2,chain 2 S287A,1.4
3,chain 2 S287D,1

# Other lines, results leading:
row,ratio to parent,Variant
1,1,chain 2 S290A
2,1,chain 2 S290D
3,0.82,chain 2 S287D S290D

# Variants of: B2
# Assay: as above
# Details: C2 cells transiently expressing FILIP1 CT-GFP and Myc-hFLNc d18–21, n = 3, read off a plot
row,ratio to parent,Variant
1,1.8,chain 2 S287A S290A
2,0.82,chain 2 S287D S290D
